Results published in patent publication US20020022718A1, “Genes identified as required for proliferation of E. coli” (priority 1999, published 2002).

Test system: Klebsiella pneumoniae
Assay: Growth inhibition by induced E. coli antisense RNA in Klebsiella pneumoniae
Format: cell-based
Parameters: key: +: a positive in Table V below means that at least 10 fold more cells were required to observe a colony on the induced plate than on the non-induced plate; −: If there was no effect of antisense RNA expression in a microorganism, the clone is minus in Table V below
Conditions: antisense RNA expression induced with IPTG, serial dilution plating
Summary of the method: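 Overnight cultures were diluted 10^2 to 10^8-fold and spotted on selective plates with or without 1 mM IPTG to induce antisense RNA from transformed E. coli sequences. After overnight growth, induced vs uninduced was scored as the log difference in the highest dilution giving colonies. No effect scores 0 (or minus); a positive score means at least 10-fold more cells were needed.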

Molecule	Sensitivity of K. pneumoniae to antisense nucleic acid (growth inhibition, induced vs. uninduced)
EcXA182: antisense clone insert to E. coli tktA (nucleic acid, listed as Escherichia coli) antisense: TCGCGAACACCGTAGTGGATGTAGTTACCCGCAGCATCTTCGTTGATTGCTTTAGAACCAGACCACAGGGTCAGGTTAGACGGCGCCAGGTCAGCAGAACCGCCGAGGAATTCCGGCAACAGCGGACCGAACGCTTCGAT	−
EcXA178: antisense clone insert to E. coli rpsT (nucleic acid, listed as Escherichia coli) antisense: CTGGAGATTGAGTAGATATTCTTGTTCAGAATGTATCAGCCCGATGGTTCTACGATTCTTAAGCCACGAAGAGTTCAGATAGTACAACGGCATGTCTCTTTTGACTATCTGGCAACCCGGCAGTGTGTTCTCTCACGCATCACAAAAGCAGCAGGCATAAAAAAACCCGCTTGCGCGGCTTTTTCACAAAGCTTCAGCAAATTGGCGATTAAGCCAGTTTGTTGATCTGTGCAGTCAGGTTAGCCTTATGACGTGCAGCTTTGTTTTTGTGGATCAAACCTTTAGCAGCCTGACGGTCCACGATCGGTTGCATTTCGTT	−
EcXA181: antisense clone insert to E. coli ppc (nucleic acid, listed as Escherichia coli) antisense: CCCGGCTGGGTTTTTTCAAGTTTACGCAGGGGTGCGGGCGATCACTTCCGGGTTGCTGGCAGCTTCGCCTTTCGGCGAAATGCTGTGGT	−
EcXA187: antisense clone insert to E. coli b2271 (nucleic acid, listed as Escherichia coli, misc_feature (1)...(632): n = A,T,C or G, antisense clone insert to E. coli b2271) antisense: TNNCANNNNCNNNNNNNNNNNNNNNNCNCNNTNCCTAGANTNTCNANGTCTNCNCNCNCNTNNCCNNNCCCTTCNNNNCCNNNNANANGNNCNNCNCCCCCNNNCCCNNTTTTGTTTTGGAAANTCCGTTTCAGGAANAGCTTCTGAATCCCGANCGNTTGATAACTGNNGGCCAGAGTCATAATGCGCACCAATAATAATCAGCGGNCCATCGGCAGGACCATAATCAGCAACAATGNNNNGGTAGGGGCCACCCGTAATGGGGACCGTCCTGCGAGGTAACTCTGGCACCGCTACTGACAAAGACCTCTTTTATATATTCTGCGGGACCTATTCAGATTATCAATATTGTCNGGCACTACGTGGATGCACAAGTTTGTGTAAGATAACGAACTGNTTTTTCTAATTGCTCAGGACTTTGCGTGTCGGGGCCGTTGACGGTAATGCATTGACCCAGGGTTGGTAAAAAATAATCATAGGGAGTAAAAACACAAATAATATAATAAAAGCCAAGATTATTTTTTTCATATGCAAAATTATTAATGGGGTTGCGTTTGGTGAATCATTATNTTGCTATGGGTTTCGATATTGNGATTTTAATTAAAGATTAAGCANGGGATTATACCAAAAGA	+ (a positive in Table V below means that at least 10 fold more cells were required to observe a colony on the induced plate than on the non-induced plate)
EcXA179: antisense clone insert to E. coli valV (nucleic acid, listed as Escherichia coli) antisense: CGAACCAACGACCCCCACCATGTCAAGGTGGTGCTCTAACCAACTGAGCTATGAACGCAACGTTGTAGGTGACAACGGGGACGAATATTAGCGGCAGAGTGGGAAGGTGGCAAGAGGCAAAACGTAATTTTCTGCGCTATTTCGACCGTTTGCAGAGCTTTTAAGCAAATTGGCTATATTTTGTTGATTTGCAAGGGTGATTTTTATTCAGGATCGCATTTACATCTGATACAACCC	−
EcXA186: antisense clone insert to E. coli yagG (nucleic acid, listed as Escherichia coli) antisense: AGCAAAGCGAGCCGAACATGGTGGCGAGGCTGCCGTAAAGTAAAAACTGGGTCGCCAACTCCGGGTGATCCATCACGTATTTCACGAAGTAGAGCGTCGCCCCGCCGCGCACCACGTTGGAGCAGGTCGCCATCATCTTGAACGCGCACATGATGCGCCACTGGCTGTTGCCCAGC	−
EcXA184: antisense clone insert to E. coli cysC (nucleic acid, listed as Escherichia coli) antisense: GCAGTTCACCGGCACGCGCTTTCTTATATAAGCCTTTGGGATCGCGGGCTTCGCAAATCGCCAGCGGCGTATCGACAAACACTTCGATAAAGCGCCCTTCTCCTACGCGTTCGCGAACCATCTGGCGTTCGGCGCGGTGTGGCGAGATAAATGCGGTCAGCACCACCAGTCCGGCTTCAACCATCAAATTCGCCACTTCACCGACGCGACGGATATTCTCTTTACGATCGGCATCGCTAAAACCGAGATCGCTGCATAATCCGTGGCGAACATTGTCGCCATCCAGCAGATACGTACTGACGCCGAGTTTATGTAACGCCTCCTCCAGCGCCCCGGCGACCGTTGAT	−
EcXA180: antisense clone insert to E. coli yjcF (nucleic acid, listed as Escherichia coli) antisense: TGTGACAGAGTGGTTATCGTTAATCAGGCAAAGAGGGAAAAACATATTATTTAAACCATTATAGCGCATAAAATATCCTTATAATTAACAAGAAAGAAAAGGCATATTCTCTGCATTATCATTTTCTACGACTGTCAAAAATCGCTCATTTTTTAATGAGTTTATTTGTTTAATATTATGGGAAAAGGTGATGCATTTGGGAGAGGAAGAGTATTCCCCGGTCAGACGACCGGGGAAGGGG	−
EcXA192: antisense clone insert to E. coli rbsC, rpsB (nucleic acid, listed as Escherichia coli) antisense: AGCGCAACAGCGGAAACCAGGGTAGCCAGTTTTTTCATGTTCATATTCAAGATGTCCTGTAGTCGTTATTACTGCTTTTTGTTGTCTACCAGCACCGCCAGCAAAATCACCACCGCTTTGACGATCATCTGGTAATAGGAGGAAACACCTAACAAATTCAATCCATTATTAAGGAAGCCAAGAATTAATGCGCCGATCAACGTCCCAACAATGCGACCTTT	−
EcXA183: antisense clone insert to E. coli ftsI (nucleic acid, listed as Escherichia coli) antisense: GTTAGTAAAGCCGATGAGGTGAGCAGTCACTTCGCCGGACGGATAGTAACGGCGAGACTCTTCACGCAGATGAATCCCCGGCAGTTTCAGTTTTTTGATGTAGTCCGCCATGTCAGGGTTCACCTGACGCGCCAGATAAATAAAGCGCCCTTTCGGGTTGGCGTTAATGCGGGCTGAAAGCTGATCCAG	−
EcXA185: antisense clone insert to E. coli rpsK (nucleic acid, listed as Escherichia coli) antisense: CCCTGACGATCAGTGATAGTCACGATGGTGTTGTTGAAAGAAGCATGGATATGAGCCACGCCGTCAG	−
